Here are results for three molecules from US20210122824A1 (ADAGENE, published 2021).

The term Kd denotes the constant that tells how readily two partners part at equilibrium. A high value points to a looser complex. By koff is commonly meant the rate constant with which the complex falls apart. High values mean a short-lived complex, low ones a long-lived complex. One may read the kon as the rate constant with which the complex forms. A high value points to faster complex formation.

Numbering of substitutions follows the chain as printed.

Test [1] concerns the target T1, rhesus PD-L1 expressed on HEK293F cells (rhesus, UniProt F6VEW6 19-290).
T1 construct: whole, on cells
The test is described as follows: flow cytometry, HEK293F cells transiently expressing the target, 100 nM antibody, PE anti-human Fc; Mean (PE-A against FITC-A, GFP surrogate). (A flow cytometer gives signals particle by particle.)

Test [2] deals with T2, human PD1 expressed on HEK293F cells (human, UniProt Q15116 25-288).
T2 construct: whole, on cells
T2 sequence (Q15116 25-288): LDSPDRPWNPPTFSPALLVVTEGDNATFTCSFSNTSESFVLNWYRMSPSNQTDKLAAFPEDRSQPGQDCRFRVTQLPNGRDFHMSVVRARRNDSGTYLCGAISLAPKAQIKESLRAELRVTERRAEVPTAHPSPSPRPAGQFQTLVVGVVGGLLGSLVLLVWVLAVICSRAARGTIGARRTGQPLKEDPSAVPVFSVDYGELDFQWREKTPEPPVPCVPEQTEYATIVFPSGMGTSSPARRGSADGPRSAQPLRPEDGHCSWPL
The test is described as above.

The target in test [3] is T3, human TIM3 expressed on HEK293F cells (human, UniProt Q8TDQ0 22-301).
T3 construct: whole, on cells
The test is described as follows: flow cytometry on transfected HEK293F cells.

Test [4] addresses T4, human CTLA4 expressed on HEK293F cells (human, UniProt P16410 36-223).
T4 construct: whole, on cells
The test is described as follows: flow cytometry on transfected HEK293F cells.

Test [5] deals with T5, human LAG3 expressed on HEK293F cells (human, UniProt P18627 23-525).
T5 construct: whole, on cells
T5 sequence (looked up): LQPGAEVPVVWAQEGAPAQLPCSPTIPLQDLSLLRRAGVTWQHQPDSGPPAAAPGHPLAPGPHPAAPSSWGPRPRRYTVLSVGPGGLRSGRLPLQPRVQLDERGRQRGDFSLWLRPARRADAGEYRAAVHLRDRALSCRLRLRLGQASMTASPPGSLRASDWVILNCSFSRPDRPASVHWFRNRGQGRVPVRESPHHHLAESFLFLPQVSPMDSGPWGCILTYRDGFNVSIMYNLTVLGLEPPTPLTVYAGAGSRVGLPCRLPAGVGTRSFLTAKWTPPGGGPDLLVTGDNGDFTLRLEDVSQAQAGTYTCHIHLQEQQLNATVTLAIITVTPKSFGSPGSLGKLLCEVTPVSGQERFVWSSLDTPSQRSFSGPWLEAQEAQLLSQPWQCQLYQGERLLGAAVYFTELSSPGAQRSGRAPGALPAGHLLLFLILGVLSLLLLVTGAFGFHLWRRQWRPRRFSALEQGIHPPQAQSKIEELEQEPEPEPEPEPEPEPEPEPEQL
The test is described as follows: flow cytometry on transfected HEK293F cells.

Test [6] concerns the target T6, human B7-H3 expressed on HEK293F cells (human, UniProt Q5ZPR3 29-534).
T6 construct: whole, on cells
T6 sequence (looked up): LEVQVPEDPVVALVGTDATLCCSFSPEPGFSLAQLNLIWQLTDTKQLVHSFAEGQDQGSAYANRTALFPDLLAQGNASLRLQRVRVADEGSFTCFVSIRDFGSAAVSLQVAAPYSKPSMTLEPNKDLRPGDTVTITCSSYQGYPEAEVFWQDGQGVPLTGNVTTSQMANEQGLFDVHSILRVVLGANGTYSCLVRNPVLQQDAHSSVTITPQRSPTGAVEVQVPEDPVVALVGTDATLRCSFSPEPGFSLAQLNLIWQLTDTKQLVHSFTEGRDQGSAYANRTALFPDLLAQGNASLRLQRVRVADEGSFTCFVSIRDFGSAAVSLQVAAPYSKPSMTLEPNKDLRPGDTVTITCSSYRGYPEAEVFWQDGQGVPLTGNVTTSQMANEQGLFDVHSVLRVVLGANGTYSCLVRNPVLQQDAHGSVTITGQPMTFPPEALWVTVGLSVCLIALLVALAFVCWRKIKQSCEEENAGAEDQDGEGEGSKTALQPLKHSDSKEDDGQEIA
The test is described as follows: flow cytometry on transfected HEK293F cells.

Test [7] has as its target T2, human PD1 expressed on HEK293F cells. The test is described as follows: flow cytometry on transfected HEK293F cells.
Test [8] has as its target T3, human TIM3 expressed on HEK293F cells. The test is described as follows: flow cytometry, HEK293F cells transiently expressing the target, 100 nM antibody, PE anti-human Fc; Mean (PE-A against FITC-A, GFP surrogate).
Test [9] concerns the target T4, human CTLA4 expressed on HEK293F cells. Described as above.
The target of test [10] is T5, human LAG3 expressed on HEK293F cells. Described as above.
For test [11], the target named is T6, human B7-H3 expressed on HEK293F cells. The description is as above.
The target of test [12] is T7, human PD-L1-Fc fusion protein (Sino Biological Cat #10084-H02H) (human, UniProt Q9NZQ7 19-239).
T7 construct: bought; not shown: Fc part of the bought fusion
T7 sequence (Q9NZQ7 19-239 limits assumed): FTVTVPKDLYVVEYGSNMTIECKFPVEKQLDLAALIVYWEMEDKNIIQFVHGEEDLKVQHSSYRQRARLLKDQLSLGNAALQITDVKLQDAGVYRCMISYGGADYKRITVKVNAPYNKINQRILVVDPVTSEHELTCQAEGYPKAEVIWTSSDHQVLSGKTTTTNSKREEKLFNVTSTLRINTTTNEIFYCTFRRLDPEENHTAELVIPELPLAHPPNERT
The test is described as follows: competition ELISA, PD1-Fc (1 ug/mL) coated, biotinylated PD-L1-Fc mixed with antibody, HRP neutravidin; blocked ligand PD1-Fc. (An ELISA detects its analyte on a solid surface through an enzyme-linked reagent.)

The target of test [13] is T8, human PD-L1 expressed on cell surface (human, UniProt Q9NZQ7 19-290).
T8 construct: whole, on cells; also called full-length human PD-L1; cell surface PD-L1
T8 sequence (Q9NZQ7 19-290): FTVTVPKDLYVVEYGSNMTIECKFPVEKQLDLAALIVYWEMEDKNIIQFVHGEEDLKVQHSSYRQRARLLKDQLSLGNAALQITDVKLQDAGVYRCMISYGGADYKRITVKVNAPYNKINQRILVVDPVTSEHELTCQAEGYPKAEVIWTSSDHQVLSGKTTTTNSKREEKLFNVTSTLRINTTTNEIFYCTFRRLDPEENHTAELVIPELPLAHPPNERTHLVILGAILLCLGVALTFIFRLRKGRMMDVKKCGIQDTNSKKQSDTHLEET
The test is described as follows: blocking by flow cytometry, HEK293F cells expressing full-length human PD-L1, 100 nM antibody then 100 nM biotinylated PD1-His (blocked ligand), Alexa fluor 633 streptavidin; isotype control panel Q2 35.1%.

The target of test [14] is mouse PD-L1 (construct not stated) (mouse, UniProt Q9EP73 19-238, limits assumed). The test is described as follows: SPR (Biacore). (SPR reads the build-up and loss of mass on a sensor chip optically.)
mouse PD-L1 (construct not stated), sequence (Q9EP73 19-238 limits assumed): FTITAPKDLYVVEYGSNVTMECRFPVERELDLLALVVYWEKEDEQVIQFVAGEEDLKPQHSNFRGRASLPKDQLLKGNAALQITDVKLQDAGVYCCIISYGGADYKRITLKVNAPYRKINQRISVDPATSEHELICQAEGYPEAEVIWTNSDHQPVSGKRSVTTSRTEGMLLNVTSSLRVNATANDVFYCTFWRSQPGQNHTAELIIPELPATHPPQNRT
For test [15], the target named is T9, mouse PD-L1 expressed on HEK293F cells (mouse, UniProt Q9EP73 19-290).
T9 construct: whole, on cells
T9 sequence (Q9EP73 19-290): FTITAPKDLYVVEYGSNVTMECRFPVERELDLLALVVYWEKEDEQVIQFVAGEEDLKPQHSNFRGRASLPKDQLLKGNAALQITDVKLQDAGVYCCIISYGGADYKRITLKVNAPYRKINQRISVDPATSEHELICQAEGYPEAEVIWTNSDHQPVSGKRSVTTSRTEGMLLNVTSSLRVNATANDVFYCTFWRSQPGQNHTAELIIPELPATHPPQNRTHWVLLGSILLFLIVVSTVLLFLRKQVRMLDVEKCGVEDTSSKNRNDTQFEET
The test is described as follows: flow cytometry, HEK293F cells transiently expressing the target, 100 nM antibody, PE anti-human Fc; Mean (PE-A against FITC-A, GFP surrogate).

Test [16] concerns the target T8, human PD-L1 expressed on cell surface. The test is described as above.
Test [17] has as its target T10, human PD-L1-His6 (Sino Biological #10084-H08H) (human, UniProt Q9NZQ7 19-239).
T10 construct: bought; not shown: His6 tag
The test is described as follows: SPR (Biacore T200), antibody captured by anti-human Fc, PD-L1-His6 in solution.

Test [18] deals with T1, rhesus PD-L1 expressed on HEK293F cells. The test is described as follows: flow cytometry on transfected HEK293F cells, 100 nM antibody.

T4 sequence (P16410 36-223): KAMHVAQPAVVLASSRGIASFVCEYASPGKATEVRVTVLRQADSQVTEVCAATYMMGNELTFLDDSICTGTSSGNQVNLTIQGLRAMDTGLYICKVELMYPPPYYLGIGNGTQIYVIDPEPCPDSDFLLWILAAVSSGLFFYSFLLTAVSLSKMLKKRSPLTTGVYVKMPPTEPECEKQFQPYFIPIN
T10 sequence (Q9NZQ7 19-239 limits assumed): as the sequence (Q9NZQ7 19-239 limits assumed) above

B1: TY21420 (antibody, V domains shown)
VH: EVQLVESGGGLVQPGGSLRLSCAASGYSISSGYYWGWIRQAPGKGLEWIGIIYPSGGGTNYAQKFQGRVTISRDNSKNTLYLQLNSLRAEDTAVYYCARGGGLGFDYWGQGTLVTVSS
VL: DIQLTQSPSSLSASVGDRVTITCRASQTIPSFLNWYQQKPGKAPKLLIYAASSLQSGVPSRFSGSGSGTDFTLTISSLQPEDFATYYCQHYTSWPRQFTFGQGTKVEIKR
notes: IgG1 (wild type) made from Fab B15016, from HEK293F cells
B1: the Mean in test [1] stood at 164000; in [2], 3710; in test [8], 4660; in test [9] it was 4570; in test [10], 4630; in [11], 3780. The binding result in [3], in test [4], in test [5], in test [6] and in test [7] was “no binding (tested: 100 nM)” in each case. The “IC50 (read off the curve)” value in [12] was ~6 nM. The “Q2 (percent of cells positive for GFP and for the APC signal of PD1-His, antibody present)” value in test [13] amounted to 1.53%.

B2: TY21418 (antibody, V domains shown)
VH: EVQLVESGGGLVQPGGSLRLSCAASGYTFSNYGIHWVRQAPGKGLEWIGWIYPSGGGTKYAQKFQGRVTISRDNSKNTLYLQLNSLRAEDTAVYYCAREGGGYGYALDYWGQGTLVTVSS
VL: DIQLTQSPSSLSASVGDRVTITCRASQGVSSYLAWYQQKPGKAPKLLIYDASNLETGVPSRFSGSGSGTDFTLTISSLQPEDFATYYCQQYDAWPYTFGQGTKVEIKR
notes: IgG1 (wild type) made from Fab B13002, from HEK293F cells
On to B2, for which the binding result is on record as “no binding” in [14]; “binds” in test [18]; “no binding (tested: 100 nM)” in [3]; “no binding (tested: 100 nM)” in test [4]; “no binding (tested: 100 nM)” in test [5]; “no binding (tested: 100 nM)” in test [6]. Also, in [7], the binding result is reported as “no binding (tested: 100 nM)”. Further, the Mean in [15] was 2470; in [16] it was 227000; in test [2], 2570; in test [8] it was 2480; in test [9] it was 3460; in [10], 2830. This molecule also registered a Kd in [17] of 0.399 nM. Further, the koff in test [17] amounted to 0.000179 s⁻¹. This molecule showed a kon in test [17] of 448000 M⁻¹ s⁻¹. Besides, in [12], the “IC50 (read off the curve)” value is ~6 nM. The “Q2 (percent of cells positive for GFP and for the APC signal of PD1-His, antibody present)” value in [13] was determined as 0.29%.

B3: TY21419 (antibody, V domains shown)
VH: B2 VH
VL: B2 VL with V29I, S31P, Y32W, L54R, E55A, V58I, A93S
notes: IgG1 (wild type) made from Fab B13004, from HEK293F cells
As to B3, the binding result is “no binding” in [14]; “no binding (tested: 100 nM)” in test [3]; “no binding (tested: 100 nM)” in [4]; “no binding (tested: 100 nM)” in test [5]; “no binding (tested: 100 nM)” in [6]; “no binding (tested: 100 nM)” in test [7]. Also, the Mean in test [1] is 201000; in test [15] it was 2500; in test [16], 219000; in [2], 3110; in test [8] it was 2310; in test [9], 2330. Besides, the Mean worked out at 3390 in test [10] and 2380 in test [11]. Binding in test [17] was put at a Kd of 0.465 nM. Also, in test [17], the koff was 0.000143 s⁻¹. This molecule showed a kon in [17] of 307000 M⁻¹ s⁻¹. For the same molecule, in [12], the “IC50 (read off the curve)” value is ~6 nM. In [13], the “Q2 (percent of cells positive for GFP and for the APC signal of PD1-His, antibody present)” value turned out to be 0.58%.
